The values that follow come from publication PMC6630058 (Biotechnology Reports, 2019).

This test addresses Toxoplasma gondii major surface antigen 1 (SAG1) (Toxoplasma gondii, RH strain, UniProt P13664). In words: far-Western, overlay or dot blot.

Sequence of Toxoplasma gondii major surface antigen 1 (SAG1) (P13664 48-336): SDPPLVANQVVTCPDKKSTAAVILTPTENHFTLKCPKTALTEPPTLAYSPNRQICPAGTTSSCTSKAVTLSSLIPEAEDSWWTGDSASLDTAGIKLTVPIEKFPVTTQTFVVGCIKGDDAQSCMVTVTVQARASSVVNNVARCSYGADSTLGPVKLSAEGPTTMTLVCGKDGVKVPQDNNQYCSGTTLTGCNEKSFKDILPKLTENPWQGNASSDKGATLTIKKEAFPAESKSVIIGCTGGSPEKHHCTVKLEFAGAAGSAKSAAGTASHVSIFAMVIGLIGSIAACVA

B1: scFvSG15(VLT8P)-AP conjugate (scFvSG15-AP with T8P in FR-1 of the kappa VL) (scFv, V domains shown)
VH: QVQLQQSGAELVRPGVSVKISCKGSGYTFTDYGMHWVKQSHAKSLEWIGIISTYSGDASYNQKFKGKATMTVDKSSSTAYMELARLTSEDSAIYYCARSSTWYYFDYWGQGTTLTVSS
VL: DIQVTQTPSSLSASLGDRVTISCRASQDISNYLNWYQQKPDGTVKLLIYYTSRLHSGVPSRFSGSGSGTDYSLTISNLEQEDIATYFCQQGNTLPYTFGGGTKLEIK
On to B1, for which the binding result is listed as “binds”.
